From PMC7618375 (2024)

Biological target: SETDB1 peptide trimethylated at K1178 (human (by the printed UniProt entry), UniProt Q15047, trimethyl-lysine at 1178)
Experiment: ITC

B1: MPP8 chromodomain (CD, residues 55-116) (domain or fragment)
chain: GEDVFEVEKILDMKTEGGKVLYKVRWKGYTSDDDTWEPEIHLEDCKEVLLEFRKKIAENKAK
  Kd: > 80 µM
